Patent US20200157174A1 (DRAGONFLY THERAPEUTICS, published 2020)
Substitutions are numbered along the chain they refer to.

Key:
Test in all cases: ELISA on coated NKG2D-Fc;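 further: titrated NKG2D-binding domains on plate-bound human, mouse or cynomolgus NKG2D ectodomain–human IgG1 Fc fusions, detected with HRP anti-human kappa secondary and TMB, absorbance at 450 nm corrected at 540 nm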
[1] = molecular target: T1, recombinant mouse NKG2D-Fc (mouse; human, UniProt O54709 90-232)
T1 construct: extracellular domain; also called mouse NKG2D-Fc fusion protein; Mouse NKG2D-Fc-biotin; not shown: human IgG1 Fc domain
T1 sequence (looked up): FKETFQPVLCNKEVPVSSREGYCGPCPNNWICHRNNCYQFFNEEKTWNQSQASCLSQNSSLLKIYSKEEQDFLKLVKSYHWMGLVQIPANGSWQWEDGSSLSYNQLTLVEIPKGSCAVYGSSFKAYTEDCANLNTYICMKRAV

[2] = molecular target: T2, recombinant cynomolgus NKG2D-Fc (cynomolgus; human, UniProt P61252 73-216)
T2 construct: extracellular domain; also called cynomolgus NKG2D-Fc fusion protein; not shown: human IgG1 Fc domain
T2 sequence (looked up): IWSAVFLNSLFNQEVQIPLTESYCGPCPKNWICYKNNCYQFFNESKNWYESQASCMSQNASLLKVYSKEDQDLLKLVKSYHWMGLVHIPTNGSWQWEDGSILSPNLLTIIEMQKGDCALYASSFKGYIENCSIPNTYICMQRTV

[3] = molecular target: T3, recombinant human NKG2D-Fc (human, UniProt P26718 73-216)
T3 construct: extracellular domain; also called human NKG2D-Fc fusion protein; NKG2D-Fc-biotin; not shown: human IgG1 Fc domain
T3 sequence (looked up): T2 sequence (looked up) with N43D, I133T

Measured: binding result

B1: ADI-29378 (antibody, V domains shown)
VH: QVQLVQSGAEVKKPGASVKVSCKASGYTFTSYYMHWVRQAPGQGLEWMGIINPSGGSTSYAQKFQGRVTMTRDTSTSTVYMELSSLRSEDTAVYYCAREGAGFAYGMDYYYMDVWGKGTTVTVSS
VL: EIVLTQSPATLSLSPGERATLSCRASQSVSSYLAWYQQKPGQAPRLLIYDASNRATGIPARFSGSGSGTDFTLTISSLEPEDFAVYYCQQSDNWPFTFGGGTKVEIK
notes: also called E78
binds: all assays above

B2: ADI-27749 (antibody, V domains shown)
VH: EVQLVESGGGLVKPGGSLRLSCAASGFTFSSYSMNWVRQAPGKGLEWVSSISSSSSYIYYADSVKGRFTISRDNAKNSLYLQMNSLRAEDTAVYYCARGAPMGAAAGWFDPWGQGTLVTVSS
VL: DIQMTQSPSSVSASVGDRVTITCRASQGISSWLAWYQQKPGKAPKLLIYAASSLQSGVPSRFSGSGSGTDFTLTISSLQPEDFATYYCQQGVSFPRTFGGGTKVEIK
notes: also called A49
binds: all assays above

B3: ADI-27705 (antibody, V domains shown)
VH: QVQLQQWGAGLLKPSETLSLTCAVYGGSFSGYYWSWIRQPPGKGLEWIGEIDHSGSTNYNPSLKSRVTISVDTSKNQFSLKLSSVTAADTAVYYCARARGPWSFDPWGQGTLVTVSS
VL: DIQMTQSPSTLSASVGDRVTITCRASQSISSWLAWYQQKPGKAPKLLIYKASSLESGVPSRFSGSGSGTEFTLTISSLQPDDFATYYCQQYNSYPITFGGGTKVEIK
binds: all assays above

B4: ADI-29403 (antibody, V domains shown)
VH: B3 VH
VL: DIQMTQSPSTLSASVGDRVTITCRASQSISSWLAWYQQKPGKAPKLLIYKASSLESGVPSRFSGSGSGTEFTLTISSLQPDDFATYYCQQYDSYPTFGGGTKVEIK
binds: all assays above

B5: ADI-29407 (antibody, V domains shown)
VH: B3 VH
VL: DIQMTQSPSTLSASVGDRVTITCRASQSISSWLAWYQQKPGKAPKLLIYKASSLESGVPSRFSGSGSGTEFTLTISSLQPDDFATYYCQQYQSFPTFGGGTKVEIK
binds: all assays above

B6: ADI-29429 (antibody, V domains shown)
VH: B3 VH
VL: DIQMTQSPSTLSASVGDRVTITCRASQSIGSWLAWYQQKPGKAPKLLIYKASSLESGVPSRFSGSGSGTEFTLTISSLQPDDFATYYCQQYELYSYTFGGGTKVEIK
binds: all assays above

B7: ADI-27743 (antibody, V domains shown)
VH: B3 VH
VL: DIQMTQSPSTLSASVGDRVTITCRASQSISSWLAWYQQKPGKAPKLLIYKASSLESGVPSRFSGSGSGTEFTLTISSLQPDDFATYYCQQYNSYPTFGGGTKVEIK
binds: all assays above

B8: ADI-29405 (antibody, V domains shown)
VH: B3 VH
VL: B5 VL with Q92G
binds: all assays above

B9: ADI-29399 (antibody, V domains shown)
VH: B3 VH
VL: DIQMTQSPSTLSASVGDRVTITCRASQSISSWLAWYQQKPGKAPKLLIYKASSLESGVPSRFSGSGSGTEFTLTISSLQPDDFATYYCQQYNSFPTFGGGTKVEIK
binds: all assays above

B10: ADI-27740 (antibody, V domains shown)
VH: B3 VH
VL: B5 VL with S30G, Q92H, P95Y
notes: also called A40
binds: all assays above

B11: ADI-29404 (antibody, V domains shown)
VH: B3 VH
VL: B5 VL with Q89E, Q92D, F94Y
notes: also called F04
binds: all assays above

B12: ADI-29421 (antibody, V domains shown)
VH: B3 VH
VL: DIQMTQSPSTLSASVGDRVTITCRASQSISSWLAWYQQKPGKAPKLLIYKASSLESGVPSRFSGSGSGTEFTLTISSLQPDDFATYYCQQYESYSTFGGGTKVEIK
binds: all assays above

B13: ADI-29419 (antibody, V domains shown)
VH: B3 VH
VL: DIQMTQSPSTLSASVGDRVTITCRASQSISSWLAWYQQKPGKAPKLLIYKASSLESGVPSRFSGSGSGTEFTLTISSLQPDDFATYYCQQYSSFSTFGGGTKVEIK
binds: all assays above

B14: ADI-28226 (antibody, V domains shown)
VH: B3 VH
VL: B6 VL with G30S, E92G, L93S, Y94F, S95P, Y96I
notes: also called C26
binds: all assays above

B15: ADI-27741 (antibody, V domains shown)
VH: B3 VH
VL: B5 VL with S30G, Y91S, Q92N, F94Y, P95Y
binds: all assays above

B16: ADI-29447 (antibody, V domains shown)
VH: B3 VH
VL: B5 VL with Q92D, S93T, P95I
notes: also called F47
binds: all assays above

B17: ADI-29424 (antibody, V domains shown)
VH: B3 VH
VL: B5 VL with Q92D, P95I
binds: all assays above

B18: ADI-29401 (antibody, V domains shown)
VH: B3 VH
VL: B5 VL with S30G, Q92D, S93I, F94Y
binds: all assays above

B19: ADI-29426 (antibody, V domains shown)
VH: B3 VH
VL: B5 VL with S30G, Q92H
binds: all assays above

B20: ADI-29425 (antibody, V domains shown)
VH: B3 VH
VL: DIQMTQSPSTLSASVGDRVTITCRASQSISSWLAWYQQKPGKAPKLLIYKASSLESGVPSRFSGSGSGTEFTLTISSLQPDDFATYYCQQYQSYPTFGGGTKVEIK
binds: all assays above

B21: ADI-27727 (antibody, V domains shown)
VH: QVQLVQSGAEVKKPGSSVKVSCKASGGTFSSYAISWVRQAPGQGLEWMGGIIPIFGTANYAQKFQGRVTITADESTSTAYMELSSLRSEDTAVYYCARGDSSIRHAYYYYGMDVWGQGTTVTVSS
VL: not shown
binds: all assays above
